Test results published in patent publication US20120322073A1 (CELGENE, published 2012).

Molecular target: T1, human CRBN protein (cereblon), full-length 51 kDa (human, UniProt Q96SW2 1-442)
T1 construct: also called human CRBN isoform 1 (NP-057386)
Assay: denaturing immunoblot
Protocol: CGN-6-4-5 was diluted 1:10,000 dilution in 0.1% Tween PBS buffer. […] Peptide neutralization was performed by combining antibody with a five-fold (by weight) excess of blocking peptide in 500 μl PBS and incubating with constant rotation at room temperature for 2 hours.

T1 sequence (Q96SW2 whole entry, canonical isoform): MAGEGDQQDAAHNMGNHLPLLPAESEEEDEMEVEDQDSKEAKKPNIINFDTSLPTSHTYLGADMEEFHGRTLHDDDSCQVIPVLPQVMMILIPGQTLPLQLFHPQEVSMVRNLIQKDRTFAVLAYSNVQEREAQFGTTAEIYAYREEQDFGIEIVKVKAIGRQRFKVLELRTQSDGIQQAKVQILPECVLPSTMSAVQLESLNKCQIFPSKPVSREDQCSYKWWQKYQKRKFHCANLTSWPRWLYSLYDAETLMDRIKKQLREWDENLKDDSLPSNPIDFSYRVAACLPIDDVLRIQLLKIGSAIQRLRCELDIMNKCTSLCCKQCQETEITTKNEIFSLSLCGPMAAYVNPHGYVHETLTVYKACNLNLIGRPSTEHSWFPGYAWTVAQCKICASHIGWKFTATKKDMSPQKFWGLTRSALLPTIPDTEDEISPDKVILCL

binding result: binds
B1: Rabbit monoclonal antibody CGN-6-4-5 (antibody, V domains shown)
VH: QSVEESGGRLVTPGTPLTLTCTVSGFSLSRYGVSWVRQAPGKGLEHIGYIYSDPGMTFYATWAKGRFTISKTSSTTVDLKMTSPTIEDTATYFCARGTPLASYSTWGPGTLVTISL
VL: AQVLTQTPASVSAAVGGTVTINCQSSENIYKNNYLSWFQQKPGQPPKLLIYQASTLASGVPSRFKGSGSGTRFSLTISDLECDDAATYYCAGGYSGNIFTFGGGTEVVVKG
notes: Rabbit IgG from a CGN-6 hybridoma clone of rabbits primed with residues 65-76 of human CRBN; also called monoclonal anti-CRBN antibody
